Measurements as given in EP2123670B1.

Columns and labels:
Conditions in all cases: remark: other sources report otherwise
factor XIIa, P00748 [1] = molecular target: T1, factor XIIa, P00748; assay: SPR, Ir-CPI immobilised; two-state model, backward rate of the conformation change
T1 chain: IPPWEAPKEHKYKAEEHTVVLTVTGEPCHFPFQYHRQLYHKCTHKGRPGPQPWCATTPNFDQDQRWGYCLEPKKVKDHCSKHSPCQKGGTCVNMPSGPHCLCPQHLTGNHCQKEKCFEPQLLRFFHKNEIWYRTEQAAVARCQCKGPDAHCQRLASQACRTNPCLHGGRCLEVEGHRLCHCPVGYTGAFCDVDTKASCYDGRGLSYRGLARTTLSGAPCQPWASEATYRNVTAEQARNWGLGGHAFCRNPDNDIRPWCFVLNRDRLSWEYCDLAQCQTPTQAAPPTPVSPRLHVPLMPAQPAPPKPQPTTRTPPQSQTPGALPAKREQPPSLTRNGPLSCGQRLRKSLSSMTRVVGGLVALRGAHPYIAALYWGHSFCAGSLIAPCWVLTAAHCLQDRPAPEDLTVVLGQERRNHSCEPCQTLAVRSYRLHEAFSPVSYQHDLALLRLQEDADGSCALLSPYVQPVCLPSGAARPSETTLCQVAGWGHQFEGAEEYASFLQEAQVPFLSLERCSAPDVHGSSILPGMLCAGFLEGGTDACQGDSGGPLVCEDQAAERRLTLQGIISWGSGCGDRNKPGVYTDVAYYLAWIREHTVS

factor XIIa, P00748 [2] = molecular target: T1, factor XIIa, P00748; assay: SPR, Ir-CPI immobilised; two-state model, forward rate of the conformation change
factor XIIa, P00748 [3] = molecular target: T1, factor XIIa, P00748; assay: SPR, Ir-CPI immobilised; two-state model, global equilibrium constant K = ka1ka2/kd1kd2
factor XIIa, P00748 [4] = molecular target: T1, factor XIIa, P00748; assay: SPR (BIAcore X), Ir-CPI immobilised at about 200 RU, factor injected at 5-300 nM; two-state model, ka1 (first step)
factor XIIa, P00748 [5] = molecular target: T1, factor XIIa, P00748; assay: SPR (BIAcore X), Ir-CPI immobilised at about 200 RU, factor injected at 5-300 nM; two-state model, kd1 (first step)

B1: Ir-CPI, Q9GP15 20-86 (protein)
chain: ANHKGRGRPAKCKLPPDDGPCRARIPSYYFDRKTKTCKEFMYGGCEGNENNFENITTCQEECRAKKV
In the case of B1, the kd2 (factor XIIa, P00748 [1]) is reported as 0.105 s⁻¹, the ka2 (factor XIIa, P00748 [2]) is reported as 0.655 s⁻¹ and the Ka (factor XIIa, P00748 [3]) is reported as 1.68e+08 M⁻¹. It also gave a kon (factor XIIa, P00748 [4]) of 219000 M⁻¹ s⁻¹ and a koff (factor XIIa, P00748 [5]) of 0.0946 s⁻¹.
